Measured values from publication PMC4822050, “Hemi-methylated DNA opens a closed conformation of UHRF1 to facilitate its histone recognition” (Nature Communications, 2016).
Like-named read-outs stand apart in the source and are kept apart here. Values belong to the molecule of their own block, whether it stands above or below them.

Experiments:
Format in all cases: binding
[1] = molecular target: H3K9me3 peptide (1–17); experiment: ITC, H3K9me3 peptide (1-17) titrated into UHRF1 proteins
Experimental: (§1) For competition ITC experiments: the indicated proteins were pre-incubated with competitive peptide, protein or hm-DNA (at 1:2 molar ratio if not specified) for 10 min followed by ITC measurements as described above. Proteins, DNA and peptides were prepared within ITC buffer containing 10 mM HEPES, pH 8.0, 100 mM NaCl. The data were fitted by software Origin 7.0. All ITC results were summarized in Supplementary Table 2 and raw data were shown in Supplementary Fig. 9.

[2] = molecular target: hm-DNA (12 bp); experiment: ITC, hm-DNA titrated into UHRF1 domains; settings: 18 °C, 12-bp hm-DNA in syringe, named protein in cell, 10 mM HEPES pH 8.0, 100 mM NaCl
Experimental: as §1

[3] = molecular target: T1, TTD (residues 134–285) of UHRF1 (Homo sapiens, UniProt Q96T88); experiment: ITC, TTD titrated into Spacer variants and other UHRF1 fragments; settings: TTD in syringe
T1 construct: TTD (residues 134–285); GST (N, cleaved yes); made in house; host or cells: E. coli BL21 (DE3)
T1 sequence (Q96T88 134-285): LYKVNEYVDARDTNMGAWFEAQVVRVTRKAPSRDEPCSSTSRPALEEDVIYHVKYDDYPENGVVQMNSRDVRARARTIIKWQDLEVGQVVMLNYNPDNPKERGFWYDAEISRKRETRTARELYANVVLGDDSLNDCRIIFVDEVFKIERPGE
Experimental: as §1

[4] = molecular target: T2, Spacer (residues 587–674) of UHRF1 (Homo sapiens, UniProt Q96T88); experiment: ITC, interaction of UHRF1 domains with the Spacer
T2 construct: Spacer (residues 587–674); GST (N, cleaved yes); made in house; host or cells: E. coli BL21 (DE3)
T2 sequence (Q96T88 587-674): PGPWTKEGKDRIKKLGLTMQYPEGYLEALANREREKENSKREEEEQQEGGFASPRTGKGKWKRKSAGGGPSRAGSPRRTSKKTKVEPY
Experimental: as §1

[5] = ITC, 18 °C, named protein 0.05 mM in cell, H3K9me3 (1-17) 0.5 mM in syringe, 10 mM HEPES pH 8.0, 100 mM NaCl, read-out: KD

B1: Spacer: C-terminal spacer region of human UHRF1 (residues 587–674) (protein)
chain: PGPWTKEGKDRIKKLGLTMQYPEGYLEALANREREKENSKREEEEQQEGGFASPRTGKGKWKRKSAGGGPSRAGSPRRTSKKTKVEPY
modifications: left off: GST, end not stated, cleaved
Kd ([1]; competition ITC, molar ratio TTD–PHD/Spacer=1:2, read-out: KD of H3K9me3 for TTD–PHD in the presence of the Spacer): 1.63 ± 0.08 µM
KD [2]: no interaction
N ([3]; ITC stoichiometry): 0.95±0.00786
ΔH ([3]; ITC): -1.13 E4±116.7 cal/mol
ΔS ([3]; ITC): -12.3 cal/mol/deg

B2: UHRF1D334A: UHRF1 mutant D334A, which abolishes H3R2-binding affinity of the PHD (protein)
chain: MWIQVRTMDGRQTHTVDSLSRLTKVEELRRKIQELFHVEPGLQRLFYRGKQMEDGHTLFDYEVRLNDTIQLLVRQSLVLPHSTKERDSELSDTDSGCCLGQSESDKSSTHGEAAAETDSRPADEDMWDETELGLYKVNEYVDARDTNMGAWFEAQVVRVTRKAPSRDEPCSSTSRPALEEDVIYHVKYDDYPENGVVQMNSRDVRARARTIIKWQDLEVGQVVMLNYNPDNPKERGFWYDAEISRKRETRTARELYANVVLGDDSLNDCRIIFVDEVFKIERPGEGSPMVDNPMRRKSGPSCKHCKDDVNRLCRVCACHLCGGRQDPDKQLMCAECDMAFHIYCLDPPLSSVPSEDEWYCPECRNDASEVVLAGERLRESKKKAKMASATSSSQRDWGKGMACVGRTKECTIVPSNHYGPIPGIPVGTMWRFRVQVSESGVHRPHVAGIHGRSNDGAYSLVLAGGYEDDVDHGNFFTYTGSGGRDLSGNKRTAEQSCDQKLTNTNRALALNCFAPINDQEGAEAKDWRSGKPVRVVRNVKGGKNSKYAPAEGNRYDGIYKVVKYWPEKGKSGFLVWRYLLRRDDDEPGPWTKEGKDRIKKLGLTMQYPEGYLEALANREREKENSKREEEEQQEGGFASPRTGKGKWKRKSAGGGPSRAGSPRRTSKKTKVEPYSLTAQQSSLIREDKSNAKLWNEVLASLKDRPASGSPFQLFLSKVEETFQCICCQELVFRPITTVCQHNVCKDCLDRSFRAQVFSCPACRYDLGRSYAMQVNQPLQTVLNQLFPGYGNGR
modifications: left off: GST, end not stated, cleaved
KD ([1]; ITC, 18 °C, named protein 0.05 mM in cell, H3K9me3 (1-17) 0.5 mM in syringe, 10 mM HEPES pH 8.0, 100 mM NaCl): undetectable

The remaining lines, values ahead:

fold lower binding affinity to H3K9me3 than wild type UHRF1 ([1]; ITC, Supplementary Fig. 4g): eight
B3: R295D/R296D mutant of full-length UHRF1: full-length UHRF1 with Linker mutation R295D/R296D (protein)
chain: MWIQVRTMDGRQTHTVDSLSRLTKVEELRRKIQELFHVEPGLQRLFYRGKQMEDGHTLFDYEVRLNDTIQLLVRQSLVLPHSTKERDSELSDTDSGCCLGQSESDKSSTHGEAAAETDSRPADEDMWDETELGLYKVNEYVDARDTNMGAWFEAQVVRVTRKAPSRDEPCSSTSRPALEEDVIYHVKYDDYPENGVVQMNSRDVRARARTIIKWQDLEVGQVVMLNYNPDNPKERGFWYDAEISRKRETRTARELYANVVLGDDSLNDCRIIFVDEVFKIERPGEGSPMVDNPMDDKSGPSCKHCKDDVNRLCRVCACHLCGGRQDPDKQLMCDECDMAFHIYCLDPPLSSVPSEDEWYCPECRNDASEVVLAGERLRESKKKAKMASATSSSQRDWGKGMACVGRTKECTIVPSNHYGPIPGIPVGTMWRFRVQVSESGVHRPHVAGIHGRSNDGAYSLVLAGGYEDDVDHGNFFTYTGSGGRDLSGNKRTAEQSCDQKLTNTNRALALNCFAPINDQEGAEAKDWRSGKPVRVVRNVKGGKNSKYAPAEGNRYDGIYKVVKYWPEKGKSGFLVWRYLLRRDDDEPGPWTKEGKDRIKKLGLTMQYPEGYLEALANREREKENSKREEEEQQEGGFASPRTGKGKWKRKSAGGGPSRAGSPRRTSKKTKVEPYSLTAQQSSLIREDKSNAKLWNEVLASLKDRPASGSPFQLFLSKVEETFQCICCQELVFRPITTVCQHNVCKDCLDRSFRAQVFSCPACRYDLGRSYAMQVNQPLQTVLNQLFPGYGNGR
modifications: left off: GST, end not stated, cleaved

Kd [1, 5]: 8.69 µM
B4: UHRF1D334A&∆627-674: UHRF1 with mutation D334A and deletion of residues 627–674 (protein)
chain: MWIQVRTMDGRQTHTVDSLSRLTKVEELRRKIQELFHVEPGLQRLFYRGKQMEDGHTLFDYEVRLNDTIQLLVRQSLVLPHSTKERDSELSDTDSGCCLGQSESDKSSTHGEAAAETDSRPADEDMWDETELGLYKVNEYVDARDTNMGAWFEAQVVRVTRKAPSRDEPCSSTSRPALEEDVIYHVKYDDYPENGVVQMNSRDVRARARTIIKWQDLEVGQVVMLNYNPDNPKERGFWYDAEISRKRETRTARELYANVVLGDDSLNDCRIIFVDEVFKIERPGEGSPMVDNPMRRKSGPSCKHCKDDVNRLCRVCACHLCGGRQDPDKQLMCAECDMAFHIYCLDPPLSSVPSEDEWYCPECRNDASEVVLAGERLRESKKKAKMASATSSSQRDWGKGMACVGRTKECTIVPSNHYGPIPGIPVGTMWRFRVQVSESGVHRPHVAGIHGRSNDGAYSLVLAGGYEDDVDHGNFFTYTGSGGRDLSGNKRTAEQSCDQKLTNTNRALALNCFAPINDQEGAEAKDWRSGKPVRVVRNVKGGKNSKYAPAEGNRYDGIYKVVKYWPEKGKSGFLVWRYLLRRDDDEPGPWTKEGKDRIKKLGLTMQYPEGYLEALANREREKENSKSLTAQQSSLIREDKSNAKLWNEVLASLKDRPASGSPFQLFLSKVEETFQCICCQELVFRPITTVCQHNVCKDCLDRSFRAQVFSCPACRYDLGRSYAMQVNQPLQTVLNQLFPGYGNGR
modifications: left off: GST, end not stated, cleaved

N ([4]; ITC stoichiometry, Spacer in syringe): 0.887±0.0379
Kd ([4]; ITC, 18 °C, Spacer in syringe, named protein in cell, 10 mM HEPES pH 8.0, 100 mM NaCl): 10.7 µM
ΔH ([4]; ITC, Spacer in syringe): -6.561 ± 0.4116 kcal/mol
ΔS ([4]; ITC, Spacer in syringe): 0.285 cal/mol/deg
interaction between the Spacer and the named protein in the presence of H3K9me3 ([4]; ITC, molar ratio of TTD-PHD or TTD: H3K9me3=1:2): No detectable interaction
fold higher binding affinity to H3K9me3 peptide than full-length UHRF1 ([1]; ITC KD ratio): ~31 fold
Kd [1, 5]: 0.15 µM
B5: TTD–PHD: human UHRF1 residues 134–366 (protein)
chain: LYKVNEYVDARDTNMGAWFEAQVVRVTRKAPSRDEPCSSTSRPALEEDVIYHVKYDDYPENGVVQMNSRDVRARARTIIKWQDLEVGQVVMLNYNPDNPKERGFWYDAEISRKRETRTARELYANVVLGDDSLNDCRIIFVDEVFKIERPGEGSPMVDNPMRRKSGPSCKHCKDDVNRLCRVCACHLCGGRQDPDKQLMCDECDMAFHIYCLDPPLSSVPSEDEWYCPECRND
modifications: left off: GST, end not stated, cleaved
